According to the supplement of paper PMC11246515:
± gives the standard deviation of the averaged measurements.

Assay: total protein half-life in vivo (active degradation + dilution); higher = more stable protein
[1] = E. coli NCM3722 delta-clpP delta-lon delta-hslV, growth: N-lim chemostat, doubling time 6 h
[2] = E. coli NCM3722 delta-clpP, growth: N-lim chemostat, doubling time 6 h
[3] = E. coli NCM3722 delta-hslV, growth: N-lim chemostat, doubling time 6 h
[4] = E. coli NCM3722 delta-lon, growth: N-lim chemostat, doubling time 6 h
[5] = E. coli NCM3722 delta-smpB, growth: N-lim chemostat, doubling time 6 h
[6] = wild type E. coli NCM3722, growth: C-lim chemostat, doubling time 6 h
[7] = wild type E. coli NCM3722, growth: C-lim chemostat, doubling time 12 h
[8] = wild type E. coli NCM3722, growth: N-lim chemostat, doubling time 6 h
[9] = wild type E. coli NCM3722, growth: N-lim chemostat, doubling time 12 h
[10] = wild type E. coli NCM3722, growth: P-lim chemostat, doubling time 6 h
[11] = wild type E. coli NCM3722, growth: P-lim chemostat, doubling time 12 h
[12] = wild type E. coli NCM3722, growth: C-lim chemostat, doubling time 3 h

In the case of “MTLTLNRQLLTSRQILVAFSGGLDSTVLLHQLVQWRTENPGVALRAIHVHHGLSANADAWVTHCENVCQQWQVPLVVERVQLAQEGLGIEAQARQARYQAFARTLLPGEVLVTAQHLDDQCETFLLALKRGSGPAGLSAMAEVSEFAGTRLIRPLLARTRGELVQWARQYDLRWIEDESNQDDSYDRNFLRLRVVPLLQQRWPHFAEATARSAALCAEQESLLDELLADDLAHCQSPQGTLQIVPMLAMSDARRAAIIRRWLAGQNAPMPSRDALVRIWQEVALAREDASPCLRLGAFEIRRYQSQLWWIKSVTGQSENIVPWQTWLQPLELPAGLGSVQLNAGGDIRPPRADEAVSVRFKAPGLLHIVGRNGGRKLKKIWQELGVPPWLRDTTPLLFYGETLIAAAGVFVTQEGVAEGENGVSFVWQKTLS”, the “total protein half-life in vivo” value [1] is reported as 5.68 ± 0.23 h, the “total protein half-life in vivo” value [2] is reported as 5.01 ± 0.08 h and the “total protein half-life in vivo” value [3] is reported as 4.74 ± 0.42 h. The “total protein half-life in vivo” value [4] was 4.89 ± 0.25 h, the “total protein half-life in vivo” value [5] was 4.44 ± 0.24 h and the “total protein half-life in vivo” value [6] was 5.78 ± 0.29 h. For the same sequence, the “total protein half-life in vivo” value [7] was 11 ± 0.83 h, the “total protein half-life in vivo” value [8] was 5.27 ± 0.28 h and the “total protein half-life in vivo” value [9] was 8.42 ± 0.81 h. For the same sequence, the “total protein half-life in vivo” value [10] was 6.31 ± 0.15 h and the “total protein half-life in vivo” value [11] was 11.6 ± 1 h.

With “MAHQLKLLKDDFFASDQQAVAVADRYPQDVFAEHTHDFCELVIVWRGNGLHVLNDRPYRITRGDLFYIHADDKHSYASVNDLVLQNIIYCPERLKLNLDWQGAIPGFNASAGQPHWRLGSMGMAQARQVIGQLEHESSQHVPFANEMAELLFGQLVMLLNRHRYTSDSLPPTSSETLLDKLITRLAASLKSPFALDKFCDEASCSERVLRQQFRQQTGMTINQYLRQVRVCHAQYLLQHSRLLISDISTECGFEDSNYFSVVFTRETGMTPSQWRHLNSQKD” the “total protein half-life in vivo” value [12] was 1.63 h.

In the case of “MITHNFNTLDLLTSPVWIVSPFEEQLIYANSAAKLLMQDLTFSQLRTGPYSVSSQKELPKYLSDLQNQHDIIEILTVQRKEEETALSCRLVLRKLTETEPVIIFEGIEAPATLGLKASRSANYQRKKQGFYARFFLTNSAPMLLIDPSRDGQIVDANLAALNFYGYNHETMCQKHTWEINMLGRRVMPIMHEISHLPGGHKPLNFVHKLADGSTRHVQTYAGPIEIYGDKLMLCIVHDITEQKRLEEQLEHAAHHDAMTGLLNRRQFYHITEPGQMQHLAIAQDYSLLLIDTDRFKHINDLYGHSKGDEVLCALARTLESCARKGDLVFRWGGEEFVLLLPRTPLDTALSLAETIRVSVAKVSISGLPRFTVSIGVAHHEGNESIDELFKRVDDALYRAKNDGRNRVLAA”, the “total protein half-life in vivo” value [1] is reported as 6.16 h, the “total protein half-life in vivo” value [2] is reported as 1.51 h and the “total protein half-life in vivo” value [12] is reported as 0.79 ± 0.18 h. For the same sequence, the “total protein half-life in vivo” value [6] was 1.87 ± 0.062 h, the “total protein half-life in vivo” value [7] was 1.42 ± 0.21 h and the “total protein half-life in vivo” value [8] was 1.31 h.

For “MTTLSCKVTSVEAITDTVYRVRIVPDAAFSFRAGQYLMVVMDERDKRPFSMASTPDEKGFIELHIGASEINLYAKAVMDRILKDHQIVVDIPHGEAWLRDDEERPMILIAGGTGFSYARSILLTALARNPNRDITIYWGGREEQHLYDLCELEALSLKHPGLQVVPVVEQPEAGWRGRTGTVLTAVLQDHGTLAEHDIYIAGRFEMAKIARDLFCSERNAREDRLFGDAFAFI [P0AEN1]”, the “total protein half-life in vivo” value [1] was 5.7 ± 0.93 h, the “total protein half-life in vivo” value [2] was 4.72 ± 0.087 h and the “total protein half-life in vivo” value [3] was 4.19 ± 0.12 h. The “total protein half-life in vivo” value [4] was 4.62 ± 0.48 h, the “total protein half-life in vivo” value [5] was 4.21 ± 0.8 h and the “total protein half-life in vivo” value [12] was 2.74 ± 0.19 h. The “total protein half-life in vivo” value [6] was 5.78 ± 0.43 h, the “total protein half-life in vivo” value [7] was 8.71 ± 1.9 h and the “total protein half-life in vivo” value [8] was 4.2 ± 0.26 h. The “total protein half-life in vivo” value [9] was 7.18 ± 0.22 h, the “total protein half-life in vivo” value [10] was 4.62 ± 1 h and the “total protein half-life in vivo” value [11] was 9.49 ± 0.3 h.

With “MNPIAVTLLTGFLGAGKTTLLRHILNEQHGYKIAVIENEFGEVSVDDQLIGDRATQIKTLTNGCICCSRSNELEDALLDLLDNLDKGNIQFDRLVIECTGMADPGPIIQTFFSHEVLCQRYLLDGVIALVDAVHADEQMNQFTIAQSQVGYADRILLTKTDVAGEAEKLHERLARINARAPVYTVTHGDIDLGLLFNTNGFMLEENVVSTKPRFHFIADKQNDISSIVVELDYPVDISEVSRVMENLLLESADKLLRYKGMLWIDGEPNRLLFQGVQRLYSADWDRPWGDEKPHSTMVFIGIQLPEEEIRAAFAGLRK” the “total protein half-life in vivo” value [1] was 5.11 ± 1.4 h, the “total protein half-life in vivo” value [2] was 3.49 ± 0.12 h and the “total protein half-life in vivo” value [3] was 3.471 ± 0.032 h. For the same sequence, the “total protein half-life in vivo” value [4] was 3.97 ± 0.38 h, the “total protein half-life in vivo” value [5] was 3.65 ± 0.28 h and the “total protein half-life in vivo” value [12] was 2.876 ± 0.022 h. For the same sequence, the “total protein half-life in vivo” value [6] was 5.139 ± 0.017 h, the “total protein half-life in vivo” value [7] was 8.715 ± 0.082 h and the “total protein half-life in vivo” value [8] was 3.52 ± 0.3 h. For the same sequence, the “total protein half-life in vivo” value [9] was 6.14 ± 0.095 h, the “total protein half-life in vivo” value [10] was 4.95 ± 0.4 h and the “total protein half-life in vivo” value [11] was 10 ± 0.33 h.

In the case of “MNSLFASTARGLEELLKTELENLGAVECQVVQGGVHFKGDTRLVYQSLMWSRLASRIMLPLGECKVYSDLDLYLGVQAINWTEMFNPGATFAVHFSGLNDTIRNSQYGAMKVKDAIVDAFTRKNLPRPNVDRDAPDIRVNVWLHKETASIALDLSGDGLHLRGYRDRAGIAPIKETLAAAIVMRSGWQPGTPLLDPMCGSGTLLIEAAMLATDRAPGLHRGRWGFSGWAQHDEAIWQEVKAEAQTRARKGLAEYSSHFYGSDSDARVIQRARTNARLAGIGELITFEVKDVAQLTNPLPKGPYGTVLSNPPYGERLDSEPALIALHSLLGRIMKNQFGGWNLSLFSASPDLLSCLQLRADKQYKAKNGPLDCVQKNYHVAESTPDSKPAMVAEDYTNRLRKNLKKFEKWARQEGIECYRLYDADLPEYNVAVDRYADWVVVQEYAPPKTIDAHKARQRLFDIIAATISVLGIAPNKLVLKTRERQKGKNQYQKLGEKGEFLEVTEYNAHLWVNLTDYLDTGLFLDHRIARRMLGQMSKGKDFLNLFSYTGSATVHAGLGGARSTTTVDMSRTYLEWAERNLRLNGLTGRAHRLIQADCLAWLREANEQFDLIFIDPPTFSNSKRMEDAFDVQRDHLALMKDLKRLLRAGGTIMFSNNKRGFRMDLDGLAKLGLKAQEITQKTLSQDFARNRQIHNCWLITAA”, the “total protein half-life in vivo” value [1] is reported as 5.837 ± 0.045 h, the “total protein half-life in vivo” value [2] is reported as 6.06 ± 0.79 h and the “total protein half-life in vivo” value [3] is reported as 5.92 ± 0.34 h. The “total protein half-life in vivo” value [4] was 6.466 ± 0.03 h, the “total protein half-life in vivo” value [5] was 5.37 ± 0.12 h and the “total protein half-life in vivo” value [12] was 3.13 ± 0.17 h. For the same sequence, the “total protein half-life in vivo” value [6] was 6.101 ± 0.011 h, the “total protein half-life in vivo” value [7] was 10.4 ± 0.11 h and the “total protein half-life in vivo” value [8] was 5.428 ± 0.015 h. The “total protein half-life in vivo” value [9] was 10.47 ± 0.039 h, the “total protein half-life in vivo” value [10] was 6.129 ± 0.044 h and the “total protein half-life in vivo” value [11] was 13.1 ± 1.5 h.

For “MSTPDFSTAENNQELANEVSCLKAMLTLMLQAMGQADAGRVMLKMEKQLALIEDETQAAVFSKTVKQIKQAYRQ [P0AD07]”, the “total protein half-life in vivo” value [11] was 7.56 ± 2.9 h.

For “MQFSTTPTLEGQTIVEYCGVVTGEAILGANIFRDFFAGIRDIVGGRSGAYEKELRKAREIAFEELGSQARALGADAVVGIDIDYETVGQNGSMLMVSVSGTAVKTRR [P0A8C1]”, the “total protein half-life in vivo” value [1] was 4.49 ± 0.27 h, the “total protein half-life in vivo” value [2] was 4.01 ± 0.34 h and the “total protein half-life in vivo” value [3] was 3.9 ± 0.47 h. The “total protein half-life in vivo” value [4] was 4.39 ± 0.13 h, the “total protein half-life in vivo” value [5] was 4.26 ± 0.15 h and the “total protein half-life in vivo” value [12] was 2.918 ± 0.013 h. The “total protein half-life in vivo” value [6] was 5.49 ± 0.17 h, the “total protein half-life in vivo” value [7] was 10.2 ± 3.2 h and the “total protein half-life in vivo” value [8] was 3.84 ± 0.47 h. For the same sequence, the “total protein half-life in vivo” value [9] was 6.45 ± 0.22 h, the “total protein half-life in vivo” value [10] was 5.53 ± 0.24 h and the “total protein half-life in vivo” value [11] was 12.2 ± 0.14 h.
